Entries after “also recorded” stand apart in the source; their conditions may differ.
Legend:
[1] = system: soluble CCR6 (sCCR6); assay: Blocking of free soluble CCR6 detection by ELISA; assay type: binding, human; details: ligand 100 ng/ml, 1 h
Description: Sera were diluted with an equal volume of PBS/BSA (1% bovine serum albumin, Sigma, Deisenhofen, Germany) either without any additives or containing CCL18 or CCL20 (both PeproTech, Hamburg, Germany; 100 ng/ml each). The diluted sera were then incubated for 1 h at 37° C. and subsequently measured by ELISA.
The sCCR6 ELISA described in Example 8 uses a monoclonal anti-CCR6 antibody as a capture antibody bound at the plate and a biotin-conjugated polyclonal anti-CCR6 antibody as a detection antibody. Most of the monoclonal anti CCR6 antibodies are directed against the N-terminal part of the receptor bearing the ligand binding site. In order to test whether the antibody recognition site of the sCCR6 molecule in sera from fibrotic patients might be covered with the ligand because of the high abundance of CCL18 in these sera, sera from healthy volunteers were incubated with 100 ng/ml of CCL18 or CCL20, respectively and sCCR6 was measured in blocked and unblocked sera by ELISA. Addition of these CCR6 ligands leads to a marked reduction of the sCCR6 signal (FIG. 20).

[2] = target: T1, CCR6 (Homo sapiens, UniProt P51684); assay: Inhibition of CCL18-induced CCR6 down-regulation on PBMNC/lymphocytes (FACS); assay type: cell-based; design: endogenous in cells; host or cells: freshly isolated human peripheral blood mononuclear cells; details: for CCL18 induced down-regulation of CCR6 expression in presence of inhibitor: CCL18 10 ng/ml + inhibitor 100 ng/ml, FACS
T1 sequence (P51684 1-374): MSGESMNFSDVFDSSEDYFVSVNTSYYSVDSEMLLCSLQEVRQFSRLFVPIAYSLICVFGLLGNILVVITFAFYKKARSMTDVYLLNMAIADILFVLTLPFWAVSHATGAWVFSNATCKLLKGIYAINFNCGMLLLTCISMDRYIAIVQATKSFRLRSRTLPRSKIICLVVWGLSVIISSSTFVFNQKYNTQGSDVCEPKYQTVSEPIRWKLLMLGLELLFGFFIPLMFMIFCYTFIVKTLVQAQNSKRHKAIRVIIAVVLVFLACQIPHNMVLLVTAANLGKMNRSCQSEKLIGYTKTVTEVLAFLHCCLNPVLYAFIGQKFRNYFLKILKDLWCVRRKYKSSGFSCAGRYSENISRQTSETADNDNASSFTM
Description: Freshly isolated mononuclear cells were incubated for 20 minutes with 10 ng/ml of CCL18, 100 ng/ml of the inhibitor peptide PS-AU-105 (polypeptide according to SEQ ID NO.: 9), a combination of both or were left untreated. The incubation was performed in RPMI1640 with 10% fetal calf serum and 100 U/ml Streptomycin/Penicillin at 37° C. After the incubation, the cells were centrifugated and the supernatant was discarded. The cells were fixed with 4% paraformaldehyde for 5 minutes on ice and washed twice in PBS containing 1% FCS. After fixation the cells were stained using a fluorescein-conjugated antibody against CCR6 (R&D systems, Wiesbaden, FRG) and analyzed by flow cytometry (FACScalibur and Quantiquest; both Becton Dickinson, Franklin Lakes, USA).

[3] = system: RLE-6TN; assay: EMT of rat alveolar epithelial cell line RLE-6TN; assay type: cell-based; details: 6 days
Description: (§1) If not otherwise mentioned cells were stimulated with 10 ng/ml human recombinant CCL18, 2.5 ng/ml TGFβ with or without additional 1 ng/ml TNFα.
After the indicated culture period the cells were washed once in PBS and lysed in ice cold lysis buffer. Whole cell lysates were boiled at 93° C. for 5 minutes in equal volumes of loading buffer (0.5M Tris-HCl pH 6.8, 2% SDS, 0, 05% bromphenolblue, 20% 2-mercaptoethanol, 10% Glycerol).
All samples were subjected to 12% sodium dodecylsulfate-PAGE, separated by electrophoresis and transferred to a polyvinylidene difluoride membrane (PVDF). After blocking for 2 h in Tris-buffered saline (TBS) containing 5% non-fat dry milk, the membranes were incubated with primary antibody (rabbit-anti-collagen I (Rockland, Gilbertsville Pa.); anti αSMA (rabbit-anti-aSMA (Abcam, Cambridge, Mass.); anti vimentin (Santa Cruz); anti CCR6: CKR6/C20, Santa Cruz) diluted 1:700 with TBS at 4° C. overnight. Visualization was performed using appropriate secondary antibodies labeled with IRDye 800CW or IRDye 700CW (Li-COR Bioscience, Bad Homburg, Germany) diluted 1:10 000-1:20000 for 2 h and scanned using Odyssey system (Li-COR Biosience) according to the manufactures instructions.

[4] = system: RLE-6TN; assay: EMT of rat alveolar epithelial cell line RLE-6TN; assay type: cell-based; details: for differentiation into fibroblast-like cells (EMT, morphology): culture period 6 days
[5] = target: T1, CCR6; assay: αSMA induction in RLE-6TN transiently transfected with human CCR6; assay type: cell-based, rat; design: expressed in transfected cells; host or cells: RLE-6TN (rat alveolar epithelial cell line), transient transfection
Source text: In contrast, all stimulations induced the expression of CD90 (FIGS. 9B and C) although CD90 expression was more intense using CCL18. […] The cells were therefore transiently transfected with a commercially available plasmid containing a DNA sequence coding for human CCR6.

[6] = target: T1, CCR6; assay: CCL18-induced FGF2 release by lung fibroblasts (FGF2 ELISA); assay type: cell-based; design: endogenous in cells; details: CCL18 10 ng/ml, 24 h
Description: To estimate CCL18-induced FGF2 release fibroblasts were harvested, counted and seeded 300.000 cells per well in a 6-well cell culture plate in Quantum 333. Cells were allowed to attach over night and the medium was replaced with 1 ml of DMEM plus 10% FCS. Cells were either left un-stimulated or were stimulated with 10 ng/ml of human recombinant CCL18. To block CCR6/CCL18 interaction a blocking antibody against CCR6 (R&D systems, Wiesbaden, FRG) or an irrelevant antibody (mouse anti human IgG, R&D Systems) was added to a final concentration of 20 μg/ml in parallel cultures. After 24 h of culture the supernatant was harvested and stored at −80° C. until FGF2 determination.

[7] = system: human primary AECII; assay: EMT of human primary alveolar epithelial cells type II; assay type: cell-based
Description: as §1
AECII were isolated as described previously (2). In brief, macroscopically tumor-free lung tissue was first sliced and slices were washed three times at 4° C. in phosphate-buffered saline (PBS) and then digested in sterile dispase solution (2.5 mg dispase II (Invitrogen GmbH, Karlsruhe, Germany) ml and 50 μg/ml DNase I (Roche Diagnostics, Mannheim, Germany)) at 37° C. for 60 minutes. After dispase digestion, the slices were thoroughly pipetted for several minutes using a 10 ml pipette with a wide inlet. Crude tissue and cell suspensions were filtered through nylon gauze with meshes of 50 and 20 μm. The cell suspension was then layered onto a density gradient solution (PAN Biotech GmbH, Aidenbach, Germany) and centrifuged at 800×g for 20 min.
The cells from interphase were washed and incubated in 100 mm Petri dishes (max. 6×10^7 cells/dish) in RPMI (Invitrogen, Karlsruhe, Germany) with 10% fetal calf serum (FCS) (PAA Laboratories GmbH, Colbe, Germany) and 1% penicillin/streptomycin (Biochrom AG, Berlin, Germany) at 37° C. in humidified incubator (5% CO2, 37° C.) for 15, 20 and if possible 30 minutes to remove adherent (mostly alveolar macrophages, monocytes and fibroblasts) from non-adherent cells. […]

[8] = system: A549; assay: EMT induction by CCL18 in adenocarcinoma cell line A549; assay type: cell-based, human
Description: Cells of the adenocarcinoma cell line A549 were seeded in 6-well plates and allowed to adhere over night. After adherence the cells were stimulated with the indicated amount of CCL18. TGFβ was used as a positive control. […]

[9] = target: T1, CCR6; assay: CCL18-induced collagen I and αSMA mRNA expression in human lung fibroblast lines (real-time PCR); assay type: cell-based; design: endogenous in cells; details: four human lung fibroblast cell lines
Description: as §1
After the indicated culture period total RNA was extracted using TRIzol Reagent according to the manufacturer's protocol (Invitrogen, Karlsruhe, Germany). Total RNA was reverse-transcribed with StrataScript RT (Stratagene, Santa Clara, Calif.) using oligo (dT)12-18 primer to produce cDNA according to the manufacturer's protocol. Specific primers for human CCR6, collagen type I, alpha-smooth muscle actin and GAPDH were designed using Primer3 software (Whitehead Institute for Biomedical Research, Cambridge, USA; http://frodo.wi.mit.edu/cgi-bin/primer3/primer3_www.cgi), Amplify1.2 software (University of Wisconsin, USA; http://engels.genetics.wisc.edu/amplify) using LocusLink and GenBank databases (National Center for Biotechnology Information; http://www.ncbi.nlm.nih.gov/LocusLink/index.html). Accession code numbers for the nucleotide sequences used to generate the respective primers and the primer sequences are depicted in FIG. 17.
All primers were intron-spanning and synthesized by MWG-Biotech (MWG-Biotech AG, Germany). […] A threshold cycle value (Ct) was calculated and used to compute the relative level of specific mRNA by the following formula: “relative expression=2^(Ct GAPDH-Ct CCL18)×10,000” for each cDNA sample.

[10] = sera with low and medium sCCR6 concentrations
[11] = serum with high sCCR6 concentration

Molecule	sCCR6 detection by ELISA after ligand addition [1, 10]	reduction of sCCR6 ELISA signal [1, 11]	sCCR6 detection by ELISA after ligand addition [1, 11]	vimentin expression (Western Blot) [3]	αSMA expression (Western Blot) [3]	differentiation into fibroblast-like cells (EMT, morphology) [4]	αSMA expression (fluorescence microscopy) ([4]; day 6)	αSMA expression in CCR6 transfected versus mock transfected cells [5]	other results
CCL20: Chemokine ligand 20, CCR6 ligand (PeproTech) [reference compound]	nearly abolishes CCR6 detection; also recorded: totally blocked	14%	reduced by one third						
PS-AU-105: inhibitor peptide, polypeptide according to SEQ ID NO.: 9, binds to and inhibits CCR6 receptor (EDCCLVYTSWQIHPKFIVDYSETSPQCPK; peptide inhibitor of CCR6)									CCL18 induced down-regulation of CCR6 expression in presence of inhibitor ([2]; 20 minutes): diminished; also recorded: fails to down-regulate the CCR6+ sub-population; CCL18 induced down-regulation of CCR6 expression in presence of inhibitor ([2]; 20 minutes, listed as PS-AU-1015): this down-regulation does not occur; effect of inhibitor only on CCR6 expression ([2]; inhibitor 100 ng/ml without CCL18, 20 minutes): no effect
TGFβ: cytokine stimulus used as positive control for EMT [reference compound]				failed to induce the expression of vimentin	strong expression of αSMA	undergoes epithelial-mesenchymal transition (EMT); also recorded: more pronounced	induces αSMA expression	induced αSMA expression in both cell types; also recorded: induce αSMA expression in both cell lines	
CCL18: human recombinant CCL18, chemokine ligand 18, ligand/agonist of CCR6 receptor (protein) AQVGTNKELCCLVYTSWQIPQKFIVDYSETSPQCPKPGVILLTKRGRQICADPNKKWVQKYISDLKLNA	nearly abolishes CCR6 detection; also recorded: totally blocked	36%	reduced by one third	expression of vimentin	Only a faint expression of αSMA	undergoes epithelial-mesenchymal transition (EMT); also recorded: induces a differentiation into spindle-shaped, fibroblast-like cells	did not	induced αSMA in CCR6 transfected cells, but not in mock transfected cells; also recorded: found in CCR6 transfected RLE-6TN but not in mock-transfected cells	CCR6 surface expression after incubation with CCL18 ([2]; CCL18 10 ng/ml, 20 minutes): decrease in the percentage of CCR6^+ cells; also recorded: marked down-regulation; also recorded: diminishes the peak markedly; FGF2 release on CCL18 stimulation ([6]; fibroblasts from fibrotic lungs): significant up-regulation; also recorded: further up-regulated; FGF2 release on CCL18 stimulation ([6]; fibroblasts from non-fibrotic lungs): only marginal; also recorded: only marginally; αSMA and vimentin expression (Western blot) ([7]; 12 days): strongly up-regulates both molecules; induction of EMT ([7]; CCL18 with or without TNFα): induces EMT; CD90 expression (immuno-fluorescence) ([4]; day 6): more intense; FSP1 mRNA expression (qPCR) ([8]; 72 h): marked and dose dependent up-regulation; also recorded: up-regulation of FSP1 expression; snail expression (western blot) ([8]; 72 h): induces dose-dependently the expression; also recorded: induces snail expression; E-cadherin expression (qPCR) ([8]; b569: after 24 h, b77: after 72 h): substantially down-regulated; also recorded: down-regulation of E-cadherin expression; collagen I mRNA expression induced [9]: three out of four; also recorded: up-regulates collagen I expression in three of four cell lines

Source: patent publication US10786550B2, “Blockade of CCL18 signaling via CCR6 as a therapeutic option in treating interstitial lung disease” (UNIVERSITÄTSKLINIKUM FREIBURG, priority 2010, dated 2020)
